Values of other authors in patent US11530434B2, “Cell mass evaluation method and device for analyzing state of cell mass” (HAMAMATSU PHOTONICS K.K., priority 2017, dated 2022).

System: cell morphology
Settings: compared to the control state

B1: TGF-β2: reagent “TGF-β2” whose addition acts on the cell morphology (reported in Non-Patent Document 3) (protein, UniProt P61812 303-414, looked up)
Transforming growth factor …: ALDAAYCFRNVQDNCCLRPLYIDFKRDLGWKWIHEPKGYNANFCAGACPYLWSSDTQHSRVLSLYNTINPEASASPCCVSQDLEPLTILYYIGKTPKIEQLSNMIVKSCKCS
change of cell shape on addition of the reagent: makes the cell shape elongated
